The results in this text go back to patent US20210024615A1 (LIVERPOOL SCHOOL OF TROPICAL MEDICINE, published 2021).

B1: dectin-1 (receptor, UniProt Q9BXN2-2 66-201, looked up)
chain: TMGVLSSPCPPNWIIYEKSCYLFSMSLNSWDGSKRQCWQLGSNLLKIDSSNELGFIVKQVSSQPDNSFWIGLSRPQTEVPWLWEDGSTFSSNLFQIRTTATQENPSPNCVWIHVSVIYDQLCSVPSYSICEKKFSM
notes: also called dec-1
B2: Siglec-4 (receptor, UniProt P20916 20-516, looked up)
chain: GHWGAWMPSSISAFEGTCVSIPCRFDFPDELRPAVVHGVWYFNSPYPKNYPPVVFKSRTQVVHESFQGRSRLLGDLGLRNCTLLLSNVSPELGGKYYFRGDLGGYNQYTFSEHSVLDIVNTPNIVVPPEVVAGTEVEVSCMVPDNCPELRPELSWLGHEGLGEPAVLGRLREDEGTWVQVSLLHFVPTREANGHRLGCQASFPNTTLQFEGYASMDVKYPPVIVEMNSSVEAIEGSHVSLLCGADSNPPPLLTWMRDGTVLREAVAESLLLELEEVTPAEDGVYACLAENAYGQDNRTVGLSVMYAPWKPTVNGTMVAVEGETVSILCSTQSNPDPILTIFKEKQILSTVIYESELQLELPAVSPEDDGEYWCVAENQYGQRATAFNLSVEFAPVLLLESHCAAARDTVQCLCVVKSNPEPSVAFELPSRNVTVNESEREFVYSERSGLVLTSILTLRGQAQAPPRVICTARNLYGAKSLELPFQGAHRLMWAKIGP
notes: also called MAG
B3: Siglec-3 (receptor, UniProt P20138 18-259, looked up)
chain: DPNFWLQVQESVTVQEGLCVLVPCTFFHPIPYYDKNSPVHGYWFREGAIISRDSPVATNKLDQEVQEETQGRFRLLGDPSRNNCSLSIVDARRRDNGSYFFRMERGSTKYSYKSPQLSVHVTDLTHRPKILIPGTLEPGHSKNLTCSVSWACEQGTPPIFSWLSAAPTSLGPRTTHSSVLIITPRPQDHGTNLTCQVKFAGAGVTTERTIQLNVTYVPQNPTTGIFPGDGSGKQETRAGVVH
B4: CD23 (receptor, UniProt P06734 48-321, looked up)
chain: DTTQSLKQLEERAARNVSQVSKNLESHHGDQMAQKSQSTQISQELEELRAEQQRLKSQDLELSWNLNGLQADLSSFKSQELNERNEASDLLERLREEVTKLRMELQVSSGFVCNTCPEKWINFQRKCYYFGKGTKQWVHARYACDDMEGQLVSIHSPEEQDFLTKHASHTGSWIGLRNLDLKGEFIWVDGSHVDYSNWAPGEPTSRSQGEDCVMMRGSGRWNDAFCDRKLGAWVCDRLATCTPPASEGSAESMGPDSRPDPDGRLPTPSAPLHS
B5: clec-4a (receptor, UniProt Q9UMR7 70-237, looked up)
chain: QKYSQLLEKKTTKELVHTTLECVKKNMPVEETAWSCCPKNWKSFSSNCYFISTESASWQDSEKDCARMEAHLLVINTQEEQDFIFQNLQEESAYFVGLSDPEGQRHWQWVDQTPYNESSTFWHPREPSDPNERCVVLNFRKSPKRWGWNDVNCLGPQRSVCEMMKIHL
notes: also called DCIR
B6: clec-4d (receptor, UniProt Q8WXI8 39-215, looked up)
chain: CLVTHHNFSRCKRGTGVHKLEHHAKLKCIKEKSELKSAEGSTWNCCPIDWRAFQSNCYFPLTDNKTWAESERNCSGMGAHLMTISTEAEQNFIIQFLDRRLSYFLGLRDENAKGQWRWVDQTPFNPRRVFWHKNEPDNSQGENCVVLVYNQDKWAWNDVPCNFEASRICKIPGTTLN
B7: dectin-2 (receptor, UniProt Q6EIG7 46-209, looked up)
chain: TYGETGKRLSELHSYHSSLTCFSEGTKVPAWGCCPASWKSFGSSCYFISSEEKVWSKSEQNCVEMGAHLVVFNTEAEQNFIVQQLNESFSYFLGLSDPQGNNNWQWIDKTPYEKNVRFWHLGEPNHSAEQCASIVFWKPTGWGWNDVICETRRNSICEMNKIYL
notes: also called dec-2
B8: tetrameric human DC-SIGN (receptor, UniProt Q9NNX6 66-404, looked up)
chain: SISQEQSRQDAIYQNLTQLKAAVGELSEKSKLQEIYQELTQLKAAVGELPEKSKLQEIYQELTRLKAAVGELPEKSKLQEIYQELTWLKAAVGELPEKSKMQEIYQELTRLKAAVGELPEKSKQQEIYQELTRLKAAVGELPEKSKQQEIYQELTRLKAAVGELPEKSKQQEIYQELTQLKAAVERLCHPCPWEWTFFQGNCYFMSNSQRNWHDSITACKEVGAQLVVIKSAEEQNFLQLQSSRSNRFTWMGLSDLNQEGTWQWVDGSPLLPSFKQYWNRGEPNNVGEEDCAEFSGNGWNDDKCNLAKFWICKKSAASCSRDEEQFLSPAPATPNPPPA

The target of this assay is T1, IgG1-Fc (human, UniProt P01857 104-330 = IgG part).
T1 construct: domain: Fc
As to the kind of experiment: ELISA.
Take B1: the binding result is given as “no binding”.

As to B2, the binding result is reported as “no binding”.

B3: the binding result is “no binding”.

On to B4, for which the binding result is “no binding”.

For the molecule B5, the binding result is listed as “no binding”.

On to B6, for which the binding result is recorded as “no binding”.

For B7, the binding result is given as “no binding”.

Regarding B8, the binding result is on record as “no binding”.
